Where a chain is given by its changes, count along the chain named. Names and notes keep the numbering of the source.
B1: CHIP R225∗, recombinant, C-terminal His tag (enzyme, human, UniProt Q9UNE7-1 1-224, looked up)
chain: MKGKEEKEGGARLGAGGGSPEKSPSAQELKEQGNRLFVGRKYPEAAACYGRAITRNPLVAVYYTNRALCYLKMQQHEQALADCRRALELDGQSVKAHFFLGQCQLEMESYDEAIANLQRAYSLAKEQRLNFGDDIPSALRIAKKKRWNSIEERRIHQESELHSYLSRLIAAERERELEECQRNHEGDEDDSHVRAQQACIEAKHDKYMADMDELFSQVDEKRKK
notes: CHIP (STUB1), human, SCA48-associated nonsense variant R225∗ (stop in place of R225, U-box domain lost); source: PD-10 desalting for mass photometry, size exclusion for ubiquitination assays
B2: CHIP P228S, recombinant, C-terminal His tag (enzyme, human, UniProt Q9UNE7-1 1-303, looked up)
chain: MKGKEEKEGGARLGAGGGSPEKSPSAQELKEQGNRLFVGRKYPEAAACYGRAITRNPLVAVYYTNRALCYLKMQQHEQALADCRRALELDGQSVKAHFFLGQCQLEMESYDEAIANLQRAYSLAKEQRLNFGDDIPSALRIAKKKRWNSIEERRIHQESELHSYLSRLIAAERERELEECQRNHEGDEDDSHVRAQQACIEAKHDKYMADMDELFSQVDEKRKKRDISDYLCGKISFELMREPCITPSGITYDRKDIEEHLQRVGHFDPVTRSPLTQEQLIPNLAMKEVIDAFISENGWVEDY
notes: CHIP (STUB1), human, SCA48-associated U-box variant P228S; source: PD-10 desalting for mass photometry, size exclusion for ubiquitination assays; not shown: His tag, C-terminal, kept
B3: CHIP R241W, recombinant, C-terminal His tag (enzyme, human, UniProt Q9UNE7-1 1-303, looked up)
chain: B2 chain with S228P, R241W
notes: CHIP (STUB1), human, SCA48-associated U-box variant R241W; source: PD-10 desalting for mass photometry, size exclusion for ubiquitination assays
B4: CHIP F37L, recombinant, C-terminal His tag (enzyme, human, UniProt Q9UNE7-1 1-303, looked up)
chain: B2 chain with F37L, S228P
notes: CHIP (STUB1), human, SCA48-associated TPR-domain variant F37L; source: PD-10 desalting for mass photometry, size exclusion for ubiquitination assays
B5: CHIP I53T, recombinant, C-terminal His tag (enzyme, human, UniProt Q9UNE7-1 1-303, looked up)
chain: B2 chain with I53T, S228P
notes: CHIP (STUB1), human, SCA48-associated TPR-domain variant I53T; source: PD-10 desalting for mass photometry, size exclusion for ubiquitination assays
B6: CHIP A67T, recombinant, C-terminal His tag (enzyme, human, UniProt Q9UNE7-1 1-303, looked up)
chain: B2 chain with A67T, S228P
notes: CHIP (STUB1), human, SCA48-associated TPR-domain variant A67T; source: PD-10 desalting for mass photometry, size exclusion for ubiquitination assays
B7: CHIP G33S, recombinant, C-terminal His tag (enzyme, human, UniProt Q9UNE7-1 1-303, looked up)
chain: B2 chain with G33S, S228P
notes: CHIP (STUB1), human, SCA48-associated TPR-domain variant G33S; source: PD-10 desalting for mass photometry, size exclusion for ubiquitination assays; not shown: His tag, C-terminal, kept
B8: CHIP P57L, recombinant, C-terminal His tag (enzyme, human, UniProt Q9UNE7-1 1-303, looked up)
chain: B2 chain with P57L, S228P
notes: CHIP (STUB1), human, SCA48-associated TPR-domain variant P57L; source: PD-10 desalting for mass photometry, size exclusion for ubiquitination assays

Molecular target: the molecule itself
Assay: mass photometry; Refeyn OneMP; CHIP at 50 nM final (a subset also at 20 nM and 100 nM) in 20 mM HEPES pH 8.0, 200 mM NaCl; self-association, oligomeric states by mass
For B1, the “stoichiometry N” value was 2.

Molecular target: the molecule itself
Assay: as above
Remark: another data set of the same source
B2: binds. B3: binds. B4: binds. B5: binds. B6: binds. B7: binds. B8: binds.
